In patent publication US20240092853A1 (Hoffmann-La Roche, published 2024):

Molecular target: T1, IL2R(bg)-Fc construct (human IL2R beta extracellular domain fused to Fc(knob) with avi tag, human IL2R gamma … (human, biotin on the C-terminal avi tag (co-expressed BirA)))
T1 construct: Knob-into-hole Fc heterodimer; also called IL2Rβγ; human heterodimeric IL-2 receptor beta/gamma
Experiment: ELISA: IL2R(bg)-Fc coated ('100nM IL2R coated'), soluble IL2v in bacterial supernatant adjusted to pH 6 or pH 7.4, washing at the same pH, detection with anti-Flag/HRP
Description: Bacterial supernatant was harvested by centrifugation and pH was adjusted to either pH 6 or pH 7.4 using Bis-Tris buffer (final concentration: 50 mM BisTris, 140 mM NaCL). Supernatant was incubated in Neutravidin plates that were previously coated with the biotinylated IL2R(bg)-Fc construct and blocked with BSA. While extensive washing after 1 h was performed with Bis-Tris washing buffer at the respective pH 6 or 7.4 (50 mM BisTris, 140 mM NaCL, 0.1% Tween), all subsequent steps were performed at pH 6 to avoid any pH-dependent secondary effects. Binding of IL2v to the IL2R(bg)-Fc construct was detected via Flag tag by using an anti-Flag/HRP secondary antibody.

T1 sequence (chain, as listed by the source limits assumed, chain 1 of 2): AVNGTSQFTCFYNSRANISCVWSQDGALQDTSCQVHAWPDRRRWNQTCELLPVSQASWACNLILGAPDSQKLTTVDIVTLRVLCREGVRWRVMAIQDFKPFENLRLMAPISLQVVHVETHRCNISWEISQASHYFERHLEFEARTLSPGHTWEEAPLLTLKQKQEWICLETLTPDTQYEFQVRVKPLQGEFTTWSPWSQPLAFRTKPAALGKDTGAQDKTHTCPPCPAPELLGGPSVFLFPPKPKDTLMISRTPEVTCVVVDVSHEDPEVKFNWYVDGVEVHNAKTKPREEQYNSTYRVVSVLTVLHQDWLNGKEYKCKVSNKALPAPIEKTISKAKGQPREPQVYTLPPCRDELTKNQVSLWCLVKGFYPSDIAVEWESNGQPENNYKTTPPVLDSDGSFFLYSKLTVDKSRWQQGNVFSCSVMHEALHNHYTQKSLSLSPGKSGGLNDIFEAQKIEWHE
T1 sequence (chain, as listed by the source limits assumed, chain 2 of 2): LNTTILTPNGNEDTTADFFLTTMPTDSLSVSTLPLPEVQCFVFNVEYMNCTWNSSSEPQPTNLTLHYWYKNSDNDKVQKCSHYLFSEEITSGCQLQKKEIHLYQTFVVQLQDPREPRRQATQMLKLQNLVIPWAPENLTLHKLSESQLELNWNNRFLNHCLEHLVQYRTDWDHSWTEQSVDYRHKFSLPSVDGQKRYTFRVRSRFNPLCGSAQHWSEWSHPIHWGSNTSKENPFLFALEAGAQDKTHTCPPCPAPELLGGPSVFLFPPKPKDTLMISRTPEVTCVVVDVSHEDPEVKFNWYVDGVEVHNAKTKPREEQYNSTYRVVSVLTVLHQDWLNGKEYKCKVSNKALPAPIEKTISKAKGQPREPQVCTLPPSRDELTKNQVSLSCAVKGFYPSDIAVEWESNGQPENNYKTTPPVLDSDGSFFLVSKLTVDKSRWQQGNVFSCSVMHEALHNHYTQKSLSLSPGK

B1: IL2v (soluble, from the phagemid, in bacterial supernatant) (ligand)
chain: APASSSTKKTQLQLEHLLLDLQMILNGINNYKNPKLTRMLTAKFAMPKKATELKHLQCLEEELKPLEEVLNGAQSKNFHLRPRDLISNINVIVLELKGSETTFMCEYADETATIVEFLNRWITFAQSIISTLT
notes: human IL-2 with T3A, F42A, Y45A, L72G, C125A; also called parental IL2v; not shown: C-terminal His tag and Flag tag of the phagemid
  binding result: binds
